The source of these data is US20090280138A1 (OXFORD BIOMEDICA UK, published 2009).

Assay [1] concerns the target T1, MHC class I molecule HLA-A*0201 (iTopia plate-bound monomer) (biotin (bound to streptavidin-coated plate)).
T1 construct: also called A2
Briefly: iTopia off-rate assay, 37 C; fit R^2 0.78. The procedure: (§1) The 9 mers were tested for Peptide Binding, Off Rate and Affinity using iTopia Epitope Discovery System in accordance with the manufacturer's instructions. Briefly, 96 well microtitre plates coated with MHC molecules representing different MHC alleles are used to identify candidate peptides. […] Determinations are performed in duplicate using an ELISA plate reader and included allele specific positive controls.
(§2) A one-phase exponential decay curve, with a plateau given equal to 0, was generated using GraphPad Prism® software, which calculated the t1/2 and goodness-of-fit, as measured by r², for each peptide.

Assay [2] addresses T1, MHC class I molecule HLA-A*0201 (iTopia …). Briefly: iTopia off-rate assay, 37 C; fit R^2 0.66. The procedure: as §1, §2
The target is the same in assay [3]. Description: iTopia off-rate assay, 37 C; fit R^2 0.74. The protocol: as §1, §2
The target is the same in assay [4]. Description: iTopia off-rate assay, 37 C; fit R^2 0.9. The protocol: as §1, §2
Assay [5] addresses T2, MHC class I molecule HLA-B*0702 (iTopia plate-bound monomer) (biotin (bound to streptavidin-coated plate)).
T2 construct: Commercial iTopia system; also called B7
Briefly: iTopia off-rate assay, 37 C; fit R^2 0.11. The protocol:
as §1, §2

Assay [6] deals with T3, MHC class I molecule HLA-A*0301 (iTopia plate-bound monomer) (biotin (bound to streptavidin-coated plate)).
T3 construct: also called A3
Briefly: iTopia off-rate assay, 37 C; fit R^2 0.95. The protocol: as §1, §2

The target in assay [7] is T1, MHC class I molecule HLA-A*0201 (iTopia …). Briefly: iTopia off-rate assay, 37 C; fit R^2 0.81. The protocol:
as §1, §2

The target is the same in assay [8]. Briefly: iTopia off-rate assay, 37 C; fit R^2 0.84. The protocol: as §1, §2
Assay [9] has the same target. Briefly: iTopia off-rate assay, 37 C; fit R^2 0.7. The protocol: as §1, §2
For assay [10], the target named is T2, MHC class I molecule HLA-B*0702 (iTopia …). Briefly: iTopia off-rate assay, 37 C; fit R^2 0.44. The protocol: as §1, §2
Assay [11] concerns the target T1, MHC class I molecule HLA-A*0201 (iTopia …). Briefly: iTopia off-rate assay, 37 C; fit R^2 0.97. The protocol:
as §1, §2

Assay [12] has the same target. Description: iTopia off-rate assay, 37 C; fit R^2 0.63. The protocol: as §1, §2
Assay [13] has the same target. Briefly: iTopia off-rate assay, 37 C; fit R^2 0.33. The procedure:
as §1, §2

Assay [14] addresses T2, MHC class I molecule HLA-B*0702 (iTopia …). Description: iTopia off-rate assay, 37 C; fit R^2 0.95. The procedure:
as §1, §2

Assay [15] has as its target T1, MHC class I molecule HLA-A*0201 (iTopia …). Description: iTopia off-rate assay, 37 C; fit R^2 0.99. The procedure: as §1, §2
The target is the same in assay [16]. Description: iTopia off-rate assay, 37 C; fit R^2 0.31. The procedure: as §1, §2
In assay [17] the target is T2, MHC class I molecule HLA-B*0702 (iTopia …). Briefly: iTopia off-rate assay, 37 C; fit R^2 0.69. The procedure: as §1, §2
Assay [18] concerns the target T1, MHC class I molecule HLA-A*0201 (iTopia …). Description: iTopia off-rate assay, 37 C; fit R^2 0.89. The procedure: as §1, §2
Assay [19] shares this target. Briefly: iTopia off-rate assay, 37 C; fit R^2 0.87. The protocol: as §1, §2
The target is the same in assay [20]. Description: iTopia off-rate assay, 37 C; fit R^2 0.8. The procedure:
as §1, §2

Assay [21] shares this target. Briefly: iTopia off-rate assay, 37 C; fit R^2 0.64. The protocol: as §1, §2
The target is the same in assay [22]. Description: iTopia off-rate assay, 37 C; fit R^2 0.91. The procedure:
as §1, §2

Assay [23] concerns the target T3, MHC class I molecule HLA-A*0301 (iTopia …). Briefly: iTopia off-rate assay, 37 C; fit R^2 0.96. The protocol: as §1, §2
The target of assay [24] is T1, MHC class I molecule HLA-A*0201 (iTopia …). Description: iTopia off-rate assay, 37 C; fit R^2 0.08. The procedure:
as §1, §2

Assay [25] has the same target. Briefly: iTopia off-rate assay, 37 C; fit R^2 0.92. The procedure: as §1, §2
Assay [26] shares this target. Description: iTopia off-rate assay, 37 C; fit R^2 0.75. The protocol:
as §1, §2

Assay [27] has the same target. Briefly: iTopia off-rate assay, 37 C; fit R^2 0.57. The procedure: as §1, §2

B1: 5T4 9-mer peptide 89 ELILNHIVP (peptide)
peptide: ELILNHIVP
notes: also called Peptide No 89
B1 displayed a t½ half life in [1] of 1.1 h.

B2: 5T4 9-mer peptide 112 LYLPRDVLA (peptide)
peptide: LYLPRDVLA
notes: also called Peptide No 112
As for B2, in assay [2], the t½ half life was determined as 3.4 h.

B3: 5T4 9-mer peptide 49 FLTGNQLAV (peptide)
peptide: FLTGNQLAV
notes: also called Peptide No 49
B3 displayed a t½ half life in assay [3] of 10.6 h.

B4: 5T4 9-mer peptide 63 LSGSRLDEV (peptide)
peptide: LSGSRLDEV
notes: also called Peptide No 63
For the molecule B4, the t½ half life in assay [4] is 0.5 h; in assay [5], 2.9 h.

B5: 5T4 9-mer peptide 124 VSLTYVSFR (peptide)
peptide: VSLTYVSFR
As to B5, the t½ half life in [6] was 0.2 h.

B6: 5T4 9-mer peptide 167 VLLELNSAD (peptide)
peptide: VLLELNSAD
notes: also called Peptide No 167
B6: in assay [7], the t½ half life was 0.8 h.

B7: 5T4 9-mer peptide 70 EHLPSLRQL (peptide)
peptide: EHLPSLRQL
notes: also called Peptide No 70
In the case of B7, the t½ half life in assay [8] was 1.4 h.

B8: 5T4 9-mer peptide 206 LTNLSSNSD (peptide)
peptide: LTNLSSNSD
Molecule B8 came in with a t½ half life in assay [9] of 0.7 h.

B9: 5T4 9-mer peptide 67 VRAGAFEHL (peptide)
peptide: VRAGAFEHL
notes: also called Peptide No 67
As to B9, in assay [10], the t½ half life is 0.4 h.

B10: 5T4 9-mer peptide 151 HMADMVTWL (peptide)
peptide: HMADMVTWL
Molecule B10 had a t½ half life in assay [8] of 7.9 h.

B11: 5T4 9-mer peptide 24 FLASAVSAQ (peptide)
peptide: FLASAVSAQ
notes: also called Peptide No 24
In [11], B11 came in with a t½ half life of 0.7 h.

B12: 5T4 9-mer peptide 32 PALCECSEA (peptide)
peptide: PALCECSEA
notes: also called Peptide No 32
In assay [7], B12 displayed a t½ half life of 2.2 h.

B13: 5T4 9-mer peptide 166 NRVLLELNS (peptide)
peptide: NRVLLELNS
notes: also called Peptide No 166
Regarding B13, the t½ half life in [12] turned out to be 1.3 h.

B14: 5T4 9-mer peptide 176 SLQTSYVFL (peptide)
peptide: SLQTSYVFL
Molecule B14 registered a t½ half life in assay [13] of 12.4 h.

B15: 5T4 9-mer peptide 45 LPAYVRNLF (peptide)
peptide: LPAYVRNLF
notes: also called Peptide No 45
B15 had a t½ half life in [14] of 1.7 h.

B16: 5T4 9-mer peptide 13 LLGWVSSSS (peptide)
peptide: LLGWVSSSS
notes: also called Peptide No 13
In [15], B16 had a t½ half life of 1.8 h.

B17: 5T4 9-mer peptide 36 AARTVKCVN (peptide)
peptide: AARTVKCVN
notes: also called Peptide No 36
Consider B17, for which the t½ half life in assay [16] turned out to be 11.1 h; in assay [17], 1.4 h.

B18: 5T4 9-mer peptide 39 CVNRNLTEV (peptide)
peptide: CVNRNLTEV
notes: also called Peptide No 39
On to B18, for which the t½ half life in [10] was 0.7 h; in assay [18] it was 1.3 h.

B19: 5T4 9-mer peptide 141 LQGLPHIRV (peptide)
peptide: LQGLPHIRV
notes: also called Peptide No 141
B19 registered a t½ half life in [19] of 1.1 h.

B20: 5T4 9-mer peptide 202 YEINADPRL (peptide)
peptide: YEINADPRL
notes: also called Peptide No 202
B20 gave a t½ half life in assay [20] of 0.6 h.

B21: 5T4 9-mer peptide 10 ARLALVLLG (peptide)
peptide: ARLALVLLG
notes: also called Peptide No 10
B21: the t½ half life in assay [9] came to 1.2 h.

B22: 5T4 9-mer peptide 135 ALKVLHNGT (peptide)
peptide: ALKVLHNGT
notes: also called Peptide No 135
As to B22, the t½ half life in assay [21] was found to be 1.5 h.

B23: 5T4 9-mer peptide 19 SASSFSSSA (peptide)
peptide: SASSFSSSA
notes: also called Peptide No 19
B23 showed a t½ half life in assay [22] of 0.2 h.

B24: 5T4 9-mer peptide 189 NRKGIKKWM (peptide)
peptide: NRKGIKKWM
For B24, the t½ half life in assay [16] was determined as 10 h.

B25: 5T4 9-mer peptide 147 NNPWVCDCH (peptide)
peptide: NNPWVCDCH
notes: also called Peptide No 147
In assay [23], B25 yielded a t½ half life of 0.2 h.

B26: 5T4 9-mer peptide 60 ELAALNLSG (peptide)
peptide: ELAALNLSG
notes: also called Peptide No 60
For B26, in [21], the t½ half life turned out to be 1.6 h.

B27: 5T4 9-mer peptide 136 KVLHNGTLA (peptide)
peptide: KVLHNGTLA
notes: also called Peptide No 136
Turning to B27, the t½ half life in [1] came out at 2.2 h.

B28: 5T4 9-mer peptide 97 RSFEGMVVA (peptide)
peptide: RSFEGMVVA
notes: also called Peptide No 97
B28 registered a t½ half life in [15] of 0.7 h.

B29: 5T4 9-mer peptide 129 LTHLESLHL (peptide)
peptide: LTHLESLHL
Take B29: the t½ half life in [20] came to 1 h.

B30: 5T4 9-mer peptide 78 ADLSPFAFS (peptide)
peptide: ADLSPFAFS
notes: it stands between 77 and 79; also called Peptide No 78
Turning to B30, in assay [22], the t½ half life came to 2.6 h.

B31: 5T4 9-mer peptide 50 TGNQLAVLP (peptide)
peptide: TGNQLAVLP
notes: also called Peptide No 50
B31 displayed a t½ half life in assay [24] of 8.7 h.

B32: 5T4 9-mer peptide 51 NQLAVLPAG (peptide)
peptide: NQLAVLPAG
notes: also called Peptide No 51
In turn, B32 displayed a t½ half life in assay [25] of 3.2 h.

B33: 5T4 9-mer peptide 87 SPLVELILN (peptide)
peptide: SPLVELILN
notes: also called Peptide No 87
The molecule B33 came in with a t½ half life in [12] of 2.4 h.

B34: 5T4 9-mer peptide 175 PPSLQTSYV (peptide)
peptide: PPSLQTSYV
notes: also called Peptide No 175
For B34, in assay [24], the t½ half life worked out at 12.7 h.

B35: 5T4 9-mer peptide 153 MVTWLKETE (peptide)
peptide: MVTWLKETE
notes: also called Peptide No 153
Regarding B35, the t½ half life in assay [26] was found to be 1.2 h.

B36: 5T4 9-mer peptide 133 LEDNALKVL (peptide)
peptide: LEDNALKVL
notes: also called Peptide No 133
The molecule B36 yielded a t½ half life in [27] of 5.7 h.

B37: 5T4 9-mer peptide 154 TWLKETEVV (peptide)
peptide: TWLKETEVV
Consider B37, for which the t½ half life in assay [26] worked out at 6.4 h.

B38: 5T4 9-mer peptide 18 TSSASSFSS (peptide)
peptide: TSSASSFSS
notes: also called Peptide No 18
In [11], B38 came in with a t½ half life of 0.7 h.

B39: 5T4 9-mer peptide 178 SYVFLGIVL (peptide)
peptide: SYVFLGIVL
notes: also called Peptide No 178
Turning to B39, the t½ half life in assay [1] is 5.1 h; in assay [17], 0.9 h.

B40: 5T4 9-mer peptide 12 LVLLGWVSS (peptide)
peptide: LVLLGWVSS
notes: also called Peptide No 12
In [25], B40 came in with a t½ half life of 2.6 h.

B41: 5T4 9-mer peptide 88 LVELILNHI (peptide)
peptide: LVELILNHI
notes: also called Peptide No 88
B41 yielded a t½ half life in assay [8] of 0.3 h.
